{"source": "patent US6989362B1", "about": "“Methods of treating dopamine dysregulation using agents that regulate phosphorylation/dephosphorylation in dopamine signaling” (The Rockefeller University, priority 1999, dated 2006)", "molecules": {"B1": {"name": "phospho-Thr75 DARPP-32: the phosphorylated form of Thr75 DARPP-32; inhibitor of PKA (protein, listed as Homo sapiens)", "chain": "MDPKDRKKIQFSVPAPPSQLDPRQVEMIRRRRPTPAMLFRLSEHSSPEEEASPHQRASGEGHHLKSKRPNPCAYTPPSLKAVQRIAESHLQSISNLNENQASEEEDELGELRELGYPREEDEEEEEDDEEEEEEEDSQAEVLKVIRQSAGQKTTRGLGLEGPWERPPPLDESERDGGSEDQVEDPALSEPGEEPQRPSPSEPGR", "modifications": "phosphorylated Thr75"}}, "biological_target": "PKA (Homo sapiens, UniProt P17612)", "test": "Inhibition of PKA phosphorylation of substrates in vitro (kinetic analysis)", "assay_type": "biochemical", "description": "Tissue was processed as described in the legend to FIGS. 1a-1e and immunoblotted for phospho-Thr75 (FIG. 2a), total DARPP-32 (FIG. 2b), or phospho-Thr34 (FIG. 2c). […] Purified DARPP-32 was phosphorylated to a stoichiometry of 0.93 mol/mol using native cdk1/cyclin B purified from sea star. Phospho-Thr75 DARPP-32 was precipitated from the reaction mixture with 5% TCA, resuspended in 1M Tris-HCl (pH 8.8), and dialyzed against 10 mM HEPES (pH 7.4). […] FIG. 2g depicts a Lineweaver-Burki kinetic analysis of PKA phosphorylation of ARPP-21 in the presence of 0 (◯), 5 (□), 10 (⋄), or 15 (Δ) μM Phospho-Thr75 DARPP-32.", "data": [{"molecule": "B1", "values": [{"measurement": "rates of phosphorylation by PKA of inhibitor-1, ARPP-21, synapsin I and histone H1", "setting": "15 μM phospho-Thr75 DARPP-32, purified catalytic subunit of PKA", "value": "dramatic reduction"}, {"measurement": "mechanism of PKA inhibition", "setting": "ARPP-21 phosphorylation, 0-15 μM inhibitor", "value": "linear competitive single site mechanism"}]}]}
